One assay has as its target T1, FcεRI β-chain (Mus musculus, UniProt P20490).
T1 construct: endogenous in cells; host or cells: BMMC (bone marrow derived mast cells)
T1 sequence (P20490 1-235): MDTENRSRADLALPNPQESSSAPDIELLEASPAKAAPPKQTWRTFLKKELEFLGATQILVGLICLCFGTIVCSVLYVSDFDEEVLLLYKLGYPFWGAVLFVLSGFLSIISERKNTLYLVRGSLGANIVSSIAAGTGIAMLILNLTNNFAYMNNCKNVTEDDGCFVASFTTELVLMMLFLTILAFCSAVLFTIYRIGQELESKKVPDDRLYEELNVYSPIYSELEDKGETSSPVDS
T1 sequence (P20489 24-250 partner): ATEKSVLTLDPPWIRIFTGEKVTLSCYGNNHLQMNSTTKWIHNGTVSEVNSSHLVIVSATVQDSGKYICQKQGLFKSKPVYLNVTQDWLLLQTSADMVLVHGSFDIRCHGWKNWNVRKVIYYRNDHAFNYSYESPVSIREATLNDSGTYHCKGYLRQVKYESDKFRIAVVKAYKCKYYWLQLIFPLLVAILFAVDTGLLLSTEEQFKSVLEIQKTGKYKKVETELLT
T1 sequence (P20491 19-86 partner): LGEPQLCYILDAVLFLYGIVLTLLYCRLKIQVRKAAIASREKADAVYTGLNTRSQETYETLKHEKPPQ
The assay can be described thus: Covalent cross linking of C3a to BMMC, immunoprecipitation and Western blot. It is filed as binding. Conditions: C3a 50 μg/ml, BS3 cross linker. As for the experimental part:
Covalent cross linking of C3a to BMMC. BMMC were washed and incubated with C3a (50 μg/ml per 15−20×10^6 cells/sample, in PBS) for 10 min at room temperature. After another incubation of 20 min at room temperature with 5 mM of the cross linking reagent bis-(sulphosuccinimidyl)-suberate (BS3, PIERCE, Ill., USA) cells were washed and lysed. Polyclonal rabbit antibodies specific to C3a (Behringwerke AG, Germany) were used for immunoprecipitation. Western blotting was carried out by an FcεRI β chain specific antibody kindly provided by Jean Pierre Kinet (Harvard University, Boston, USA). As secondary antibody, HRPO-conjugated goat anti-mouse IgG (DAKO, Frank Diagnosztika Kft, Hungary) was used. Detection was performed by ECL.
Covalent cross-linking of C3a to BMMC. Since no C3a-receptors could be detected on mucosal type mast cells, the possibility that the peptides exert their inhibitory effect via interaction with a different cell membrane component, probably the type 1 Fcε-receptor, was examined. […] Since the ITAM-bearing β-chain had earlier been reported to act as an amplifier of the FcεRI response, the interaction of C3a with this membrane protein on BMMC was determined. Cells were incubated with C3a followed by adding the covalent cross linking agent, BS^3-reagent. […] Protein samples were separated by SDS-PAGE and analyzed by Western-blotting, using FcεRI β-chain specific antibodies.
In general terms: A western blot detects proteins with antibodies after separation by electrophoresis.

The test system of assay [1] is rat peritoneal mast cells (RPMC). Put plainly: Secretory response (β-hexosaminidase release) of rat peritoneal mast cells. It is filed as cell-based. From the text: Rat peritoneal mast cells (RPMC) were isolated as previously described (Kim et al. J. Immunol. 162:4960-4965, […]). Mast cell preparations were ca. 95% pure, as evaluated by flow cytometric monitoring of FcεRI surface expression. Compound 48/80, a specific activator of serosal type mast cells elicited about 50% release of the total β-hexosaminidase content of the isolated rat peritoneal mast cells.
(§1) Secretory response of mast cells.
While mucosal type mast cells are non-responsive to peptidergic stimuli, the serosal type ones have been known for a long time to be stimulated by cationic secretagogues. The anaphylatoxic peptides C3a and C5a initiate the cells' secretory response by binding to their respective receptors expressed by serosal type mast cells. To investigate the effect of the peptides on this mast cell-type, RPMC were used. As expected, these cells did respond to both C5a and C3a (Table 2). However, degranulation was inhibited when peptides C3a7 or C3a9 were added to the IgE-sensitized RPMC and stimulated, 5 min later with a suboptimal antigen dose (Table 2).

For assay [2], the system named is bone marrow derived mast cells (BMMC). The assay can be described thus: Secretory response (β-hexosaminidase release) of bone marrow derived mast cells. It is filed as cell-based, mouse. As for the experimental part: Cells. Bone marrow derived mast cells (BMMC) were prepared from Balb/c mice as described by Nagao et al. (Science 212: 333-335, 1981). After 3 weeks, an approximately 95% pure mast cell population was obtained, showing high expression of FcεRI and stem cell factor receptor (c-kit), as measured by flow cytometry.
as §1
Similar experiments were carried out using bone-marrow derived mast cells (BMMC). […] The control peptide of the sequence DVSNYITR had no effect on either system.

In another assay the test system is RBL-2H3 cells. Conditions: Erdei et al. 1995, 1999; cited from earlier work.
Another assay has as its target human FcεRI β chain (Homo sapiens, UniProt Q01362). The assay can be described thus: Surface plasmon resonance, immobilized extracellular loop peptides of human FcεRI β chain. Particulars: SPR.
The next assay concerns the target rat FcεRI β chain (Rattus norvegicus, UniProt P13386). Put plainly: Surface plasmon resonance, immobilized extracellular loop peptides of rat FcεRI β chain. Particulars: SPR. Background: SPR reads the build-up and loss of mass on a sensor chip optically.

Results on 1 substance are retold here after patent publication US20090075898A1, “Complement C3A Derived Peptides and Uses Thereof” (Yeda Research and Development Co. Ltd. at the Weizmann …, priority 2005, published 2009).

Turning to “C3a: human complement component C3a, a 77-mer peptide (SEQ ID NO:1), isolated”, the “Cross-linked complex with FcεRI β-chain on BMMC” value with FcεRI β-chain is on record as “covalent complex”. Also, the “Stimulation of secretory response of RPMC by the peptide itself” value in assay [1] (non-sensitized cells, no antigen) is “did respond”. Further, in assay [1] (suboptimal antigen-dose), the “Inhibitory effect (IC50) on the IgE-mediated degranulation of rat peritoneal mast cells (RPMC)” value is “Activation*”. Moreover, the “Inhibition of IgE-mediated secretory response of BMMC” value in assay [2] is reported as “found to inhibit”. Also, the “Inhibition of IgE-mediated degranulation of RBL-2H3 cells (literature)” value in the assay on RBL-2H3 cells is on record as “inhibit”. Besides, the “Interaction with the second extracellular loop of human FcεRI β chain” value with human FcεRI β chain is recorded as “No interaction could be detected”. Besides, the Kd was found to be 250 nM with human FcεRI β chain (read-out: Kd, first extracellular loop of human FcεRI β chain, koff/kon) and 520 nM in the assay with rat FcεRI β chain (read-out: Kd, first extracellular loop of rat FcεRI β chain, koff/kon). The “Interaction with the second extracellular loop of rat FcεRI β chain” value in the assay with rat FcεRI β chain is reported as “No interaction could be detected”.

The Kd is the concentration at which binding is half-saturated.
